Measured values published in US20260001914A1, “MACROCYCLIC PEPTIDES TARGETING KRAS” (Merck Sharp & Dohme LLC, priority 2022, published 2026).

Biological target: Biotin-labeled KRAS-G12D protein (UniProt P01116-2 1-169, limits assumed, biotin label (site not stated); loaded with BODIPY-GDP)
Test: cell-based or functional assay

## cyclo(F-R-3Pal-Nle-TyrOMe-Nle-NMeF-cHxclacid4NH2) (peptide)
  SOS assay EC50: 0.256 µM

## cyclo(F-R-Phe4cPyrr-Nle-TyrOMe-Nle-NMeF-c3amCblc) (peptide)
  SOS assay EC50: 0.0353 µM

## cyclo(F-ArgMeMe-Phe4Gn-L-TyrOMe-Nle-NMeF-dC1-C1Ac) (peptide)
  SOS assay EC50: 1.16 µM

## cyclo(C1Ac-F-R-3Pal-cBuA-Ape-Nle-NMe3Pal-C) (peptide)
  SOS assay EC50: 7.27 µM

## cyclo(F-R-3Pal-Nle-PraMe-Nle-NMe3Pal-aMeC1-C1Ac) (peptide)
  SOS assay EC50: 3.07 µM

## cyclo(F-R-3Pal-cBuA-TyrOMe-AheNMeHag-aMeC-C1Ac) peak 2 (peptide)
  SOS assay EC50: 0.65 µM

## cyclo(F-R-3Pal-Nle-TyrOMe-Nle-NMeF-13amCb1c) (peptide)
  SOS assay EC50: 0.186 µM

## cyclo(Phe4F-R-4Pal-hIle-TyrOMe-Nva-NMeF-dC-C1Ac) (peptide)
  SOS assay EC50: 2.06 µM

## cyclo(F-R-3Pal-cBuA-TyrOMe-HagNMeHag-daMeC-C1Ac) (peptide)
  SOS assay EC50: 0.239 µM

## cyclo(F-NMeR-d3Pal-NMeNle-Phe2F-Nle-NMe3Pal-amBCP) (peptide)
  SOS assay EC50: 1.2 µM

## cyclo(F-R-d3Pal-cBuA-Phe2F-Nle-NMe3Pal-BCP) (peptide)
  SOS assay EC50: 1.14 µM

## cyclo(F-DabN3-3Pal-Nle-Phe2F-Nle-NMe3Pal-c3amCb1c) (peptide)
  SOS assay EC50: 0.83 µM

## cyclo(FLac-NMeA~PyrimAla-cPrA-3Pal6F-hL-NMeF-amBCP) (peptide)
  SOS assay EC50: 0.00372 µM

## cyclo(Phe3F-R-4Pal-L-TyrOMe-Nva-NMeF-dC1-C1Ac) (peptide)
  SOS assay EC50: 3.75 µM

## cyclo(NMeF-NMeNvaImid-Phe4cPyrr-Nle-Phe2F-Nle-NMe3Pal-amBCP) (peptide)
  SOS assay EC50: 3.22 µM

## cyclo(Phe34F2-R-4Pal-L-TyrOMe-Nva-NMeF-dC1-C1Ac) (peptide)
  SOS assay EC50: 2.77 µM

## cyclo(F-NMeDabN3-3Pal-Nle-Phe2F-Nle-NMe3Pal-amBCP) (peptide)
  SOS assay EC50: 0.267 µM

## cyclo(F-R-3Pal-Nle-SerOMe-Nle-NMe3Pal-aMeC1-C1Ac) (peptide)
  SOS assay EC50: 6.39 µM

## cyclo(C1Ac-F-R-3Pal-cBuA-Hag-Nle-NMe3Pal-C) (peptide)
  SOS assay EC50: 9.15 µM

## cyclo(F-R-3Pal-cBuA-TyrOMe-124triazole-dC~C1Ac) (peptide)
  SOS assay EC50: 2.82 µM

## cyclo(F-OmN3-3Pal-Nle-Phe2F-Nle-NMe3Pal-c3amCblc) (peptide)
  SOS assay EC50: 5.59 µM

## cyclo(F-R-Phe4cMph-Nle-TyrOMe-Nle-NMeF-c3amCblc) (peptide)
  SOS assay EC50: 0.0606 µM

## cyclo(F-R-3Pal-Nle-Phe2F-Nle-NMe3Pal-aMeC-C1Ac) (peptide)
  SOS assay EC50: 0.37 µM

## cyclo(F-baceNva-d3Pal-cBuA-Phe2F-Nle-NMe3Pal-amBCP) (peptide)
  SOS assay EC50: 0.00756 µM

## cyclo(Phe4F-R-4Pal-L-TyrOMe-Nva-NMeF-dC6-C1Ac) (peptide)
  SOS assay EC50: 0.369 µM

## cyclo(INal-R-4Pal-L-TyrOMe-Nva-NMeF-dC1-C1Ac) (peptide)
  SOS assay EC50: 0.935 µM

## cyclo(FLac-NMeA-PyrimAla-cPrA-4Pal2F-hL-NMeF-amBCP) (peptide)
  SOS assay EC50: 0.00269 µM

## cyclo(F-R-3Pal-Nle-TyrOMe-Nle-NMeF-cBuTE-C1Ac) (peptide)
  SOS assay EC50: 3.44 µM

## cyclo(Phe4F-R-LysN3-Nle-Y-Nle-NMeF-Cysteamine-C1Ac) (peptide)
  SOS assay EC50: 3.53 µM

## cyclo(F-NMeDabN3-3Pal-Nle-Phe2F-Nle-NMe3Pal-c3amCb1c) (peptide)
  SOS assay EC50: 0.753 µM

## cyclo(F-R-PyrimAla-cBuA-Phe2F-Nle-NMe3Pal-aMeC1-C1Ac) (peptide)
  SOS assay EC50: 0.000998 µM

## cyclo(F-MorNva-3Pal-cBuA-Phe2F-Nle-NMe3Pal-amBCP) (peptide)
  SOS assay EC50: 0.432 µM

## cyclo(Phe4F-R-4Pal-Nle-TyrOMe-Nle-NMeF-Cysteamine-C1Ac) (peptide)
  SOS assay EC50: 0.432 µM

## cyclo(F-Nva-Phe4Gn-L-TyrOMe-Nle-NMeF-dC1-C1Ac) (peptide)
  SOS assay EC50: 4.32 µM

## cyclo(NMeF-NMeDabN3-3Pal-Nle-Phe2F-Nle-NMe3Pal-c3amCblc) (peptide)
  SOS assay EC50: 8.47 µM

## cyclo(F-R-Phe4Gn-Nle-TyrOMe-Nle-NMeF-acBu) (peptide)
  SOS assay EC50: 0.0138 µM

## cyclo(F-R-Phe4Gn-Nle-TyrOMe-Nle-NMeF-SamHex) (peptide)
  SOS assay EC50: 0.142 µM

## cyclo(F-R-3Pal-Nle-TyrOMe-Nle-NMeF-bhcLeu) (peptide)
  SOS assay EC50: 0.193 µM

## cyclo(Phe4F-R-4Pal-L-TyrOMe-Nva-NMeF-dC1-C1Ac) (peptide)
  SOS assay EC50: 1.17 µM

## cyclo(Y-hS-3Pal-cBuA-Phe2F-Nle-NMe3Pal-daMeC1-C1Ac) (peptide)
  SOS assay EC50: 6.68 µM

## cyclo(F-R-d3Pal-cBuA-Phe2F-Nle-NMe3Pal-amOBCH) (peptide)
  SOS assay EC50: 6.83 µM

## cyclo(F-R-3Pal-cBuA-Pra-Nle-NMeF-aMeC1-C1Ac) (peptide)
  SOS assay EC50: 0.298 µM

## cyclo(F-R-3Pal-cBuA-SerOMe-Nle-NMeF-aMeC1-C1Ac) (peptide)
  SOS assay EC50: 0.943 µM

## cyclo(Phe4F-R-4Pal-L-TyrOMe-Nva-NMeF-Cysteamine-C1Ac) (peptide)
  SOS assay EC50: 3.01 µM

## cyclo(F-IPG-d3Pal-cBuA-Phe2F-Nle-NMe3Pal-amBCP) (peptide)
  SOS assay EC50: 1.23 µM

## cyclo(F-NMeR-3Pal-Nle-TyrOMe-Nle-NMeF-c3amCblc) (peptide)
  SOS assay EC50: 0.0962 µM

## cyclo(F-NO2IMNva-d3Pal-cBuA-Phe2F-Nle-NMe3Pal-amBCP) (peptide)
  SOS assay EC50: 0.242 µM

## cyclo(F-R-3Pal-Nle-I-Nle-NMe3Pal-aMeC1-C1Ac) (peptide)
  SOS assay EC50: 0.642 µM

## cyclo(1Nal-R-Phe4CH2NHAc-Nle-Y-Nle-NMeF-daMeC-C1Ac) (peptide)
  SOS assay EC50: 7.03 µM

## cyclo(1Nal-R~Phe4Gn-Nle-Y-Nle-NMeF-daMeC-C1Ac) (peptide)
  SOS assay EC50: 0.575 µM

## cyclo(F-R-3Pal-Nle-V-Nle-NMe3Pal-aMeC1-C1Ac) (peptide)
  SOS assay EC50: 0.329 µM

## cyclo(F-R-d3Pal-cBuA-TyrOMe-Nle-NMeF-Smcysteamine-C1Ac) (peptide)
  SOS assay EC50: 0.0378 µM

## cyclo(NMeF-NMeNvalmid-3Pal-dNle-Phe2F-Nle-NMe3Pal-c3amCblc) (peptide)
  SOS assay EC50: 1.46 µM

## cyclo(F-R-hK-Nle-Bip-hY-NMeF-Cysteamine-C1Ac) (peptide)
  SOS assay EC50: 4.49 µM

## cyclo(TyrOMe-Orn~3Pal-cBuA-Phe2F-Nle-NMe3Pal-daMeC1-C1Ac) (peptide)
  SOS assay EC50: 2.13 µM

## cyclo(F-R-hS-cBuA-Phe2F-Nle-NMeF-aMeC1-C1Ac) (peptide)
  SOS assay EC50: 0.503 µM

## cyclo(F-R-3Pal-Nle-deHLeu-Nle-NMe3Pal-aMeC1-C1Ac) (peptide)
  SOS assay EC50: 0.526 µM

## cyclo(F-R-Phe4Gnc2-Nle-TyrOMe-Nle-NMeF-c3amCblc) (peptide)
  SOS assay EC50: 0.0156 µM

## cyclo(F-R-3Pal-Nle-TyrOMe-Nle-NMeF-cBuAc) (peptide)
  SOS assay EC50: 0.117 µM

## cyclo(F-6Quin4NH2-Phe4Gn-L-TyrOMe-Nle-NMeF-C1-C1Ac) (peptide)
  SOS assay EC50: 7.79 µM

## cyclo(F-R-d3Pal-cBuA-Phe2F-Nle-NMe3Pal-amBYA) (peptide)
  SOS assay EC50: 0.387 µM

## cyclo(F-NMeNvalmid-3Pal-Nle-Phe2F-Nle-NMe3Pal-tamcPr) (peptide)
  SOS assay EC50: 0.272 µM

## cyclo(F-R-Phe4Gn-Nle-TyrOMe-Nle-NMeF-cBuAc) (peptide)
  SOS assay EC50: 0.419 µM
